According to PMC2915561 (Biochemistry, 2010):

What was measured:
SEC [1] = molecular target: the molecule itself; assay: SEC
SEC [2] = molecular target: the molecule itself; assay: SEC; remark: listed apart in the source
SAXS = molecular target: the molecule itself; assay: SAXS

Protein	stoichiometry N (SEC [1])	further results
LovK (1–163) (domain or fragment, Caulobacter crescentus, UniProt Q9ABE3 1-163, looked up) MEDYSESRRAGERLAAGHGVDDPFAAAISATRMAMIVADATQPDIPIIFANDAFLRLTGYARDEVIGRNCRFLQGPDTDPKAIQAVRDALAAGEDVAVDLLNYRKDGSPFWNALNMSPVRNDAGQLVYFFGSQVDVTDKKVVELRARDHSDGLQQMVEERTRE	2	
LovK (1–138) (domain or fragment, Caulobacter crescentus, UniProt Q9ABE3 1-138, looked up) MEDYSESRRAGERLAAGHGVDDPFAAAISATRMAMIVADATQPDIPIIFANDAFLRLTGYARDEVIGRNCRFLQGPDTDPKAIQAVRDALAAGEDVAVDLLNYRKDGSPFWNALNMSPVRNDAGQLVYFFGSQVDVTD	2	
LovK (25–138), isolated LOV core (domain or fragment, Caulobacter crescentus, UniProt Q9ABE3 25-138, looked up) AAAISATRMAMIVADATQPDIPIIFANDAFLRLTGYARDEVIGRNCRFLQGPDTDPKAIQAVRDALAAGEDVAVDLLNYRKDGSPFWNALNMSPVRNDAGQLVYFFGSQVDVTD	2	
LovK (1–368), full-length Caulobacter crescentus LOV-histidine kinase (enzyme, UniProt Q9ABE3 1-368, looked up) MEDYSESRRAGERLAAGHGVDDPFAAAISATRMAMIVADATQPDIPIIFANDAFLRLTGYARDEVIGRNCRFLQGPDTDPKAIQAVRDALAAGEDVAVDLLNYRKDGSPFWNALNMSPVRNDAGQLVYFFGSQVDVTDKKVVELRARDHSDGLQQMVEERTRELTEALKQKTALLHEVDHRVKNNLQLISSLLLLQNRRVPDPAVKASLRGMLGRVNAIATVHRRLFQSEDVERFDVSAFIRDMVADLMGSAMRDDIRVELDLERVEIPAAKAAPLALVVNELLTNALRHGFPEGRGGRIFVGLSRLNGDFRIEITDDGVGQDRETRASGFGLTIVQLLCQQLKAKWETTDAEPGTRVVVLLPINGTQ		stoichiometry N (SEC [2]): 2
LovK C70A (1–368), full-length "blind" mutant (enzyme, Caulobacter crescentus, UniProt Q9ABE3 1-368, looked up) MEDYSESRRAGERLAAGHGVDDPFAAAISATRMAMIVADATQPDIPIIFANDAFLRLTGYARDEVIGRNARFLQGPDTDPKAIQAVRDALAAGEDVAVDLLNYRKDGSPFWNALNMSPVRNDAGQLVYFFGSQVDVTDKKVVELRARDHSDGLQQMVEERTRELTEALKQKTALLHEVDHRVKNNLQLISSLLLLQNRRVPDPAVKASLRGMLGRVNAIATVHRRLFQSEDVERFDVSAFIRDMVADLMGSAMRDDIRVELDLERVEIPAAKAAPLALVVNELLTNALRHGFPEGRGGRIFVGLSRLNGDFRIEITDDGVGQDRETRASGFGLTIVQLLCQQLKAKWETTDAEPGTRVVVLLPINGTQ		stoichiometry N (SAXS): 2
LovK (25–163) (domain or fragment, Caulobacter crescentus, UniProt Q9ABE3 25-163, looked up) AAAISATRMAMIVADATQPDIPIIFANDAFLRLTGYARDEVIGRNCRFLQGPDTDPKAIQAVRDALAAGEDVAVDLLNYRKDGSPFWNALNMSPVRNDAGQLVYFFGSQVDVTDKKVVELRARDHSDGLQQMVEERTRE	2	
